Consider 16 molecules from US20190315855 (published 2019).

Test [1] has as its target T1, mouse DLL4 ECD (mouse, UniProt Q9JI71).
T1 chain: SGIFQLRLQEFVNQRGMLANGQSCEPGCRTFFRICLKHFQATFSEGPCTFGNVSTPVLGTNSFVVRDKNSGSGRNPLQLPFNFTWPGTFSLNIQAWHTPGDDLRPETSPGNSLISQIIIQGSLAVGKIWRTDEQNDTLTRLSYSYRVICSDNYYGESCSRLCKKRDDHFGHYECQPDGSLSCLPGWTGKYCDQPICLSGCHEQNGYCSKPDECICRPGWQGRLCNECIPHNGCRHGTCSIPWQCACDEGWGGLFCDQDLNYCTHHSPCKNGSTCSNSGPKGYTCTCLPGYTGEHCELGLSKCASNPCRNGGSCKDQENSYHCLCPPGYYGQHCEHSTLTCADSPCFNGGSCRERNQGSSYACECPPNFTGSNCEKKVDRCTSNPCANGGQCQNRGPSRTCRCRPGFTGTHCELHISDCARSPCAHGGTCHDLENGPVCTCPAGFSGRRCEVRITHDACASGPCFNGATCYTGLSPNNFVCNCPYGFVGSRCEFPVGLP
Description: SPR.

For test [2], the target named is human DLL4 (cell surface) (human). In words: FACS.
Sequence of human DLL4 (cell surface) (human) (chain, as listed by the source): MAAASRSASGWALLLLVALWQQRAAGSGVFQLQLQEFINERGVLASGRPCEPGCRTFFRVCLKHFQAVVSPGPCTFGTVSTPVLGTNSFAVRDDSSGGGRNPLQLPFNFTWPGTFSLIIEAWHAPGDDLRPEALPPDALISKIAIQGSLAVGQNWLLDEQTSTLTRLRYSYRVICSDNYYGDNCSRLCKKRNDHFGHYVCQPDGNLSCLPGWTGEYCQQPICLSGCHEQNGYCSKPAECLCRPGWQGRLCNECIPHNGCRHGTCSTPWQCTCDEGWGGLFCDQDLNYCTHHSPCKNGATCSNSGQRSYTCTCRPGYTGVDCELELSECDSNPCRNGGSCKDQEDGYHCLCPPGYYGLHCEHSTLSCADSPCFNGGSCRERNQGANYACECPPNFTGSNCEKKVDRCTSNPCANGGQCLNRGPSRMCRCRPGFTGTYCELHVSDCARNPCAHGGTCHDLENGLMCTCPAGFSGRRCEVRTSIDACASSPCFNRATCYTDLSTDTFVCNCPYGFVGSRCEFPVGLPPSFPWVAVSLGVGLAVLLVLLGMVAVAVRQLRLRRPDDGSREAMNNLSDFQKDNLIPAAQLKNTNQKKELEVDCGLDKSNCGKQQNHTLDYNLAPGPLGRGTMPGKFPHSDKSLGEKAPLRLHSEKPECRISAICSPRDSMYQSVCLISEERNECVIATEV
Test [3] addresses human DLL4 ECD (human). In words: competition ELISA.
The target in test [4] is T2, mouse DLL4 (cell surface) (mouse, UniProt Q9JI71).
T2 chain: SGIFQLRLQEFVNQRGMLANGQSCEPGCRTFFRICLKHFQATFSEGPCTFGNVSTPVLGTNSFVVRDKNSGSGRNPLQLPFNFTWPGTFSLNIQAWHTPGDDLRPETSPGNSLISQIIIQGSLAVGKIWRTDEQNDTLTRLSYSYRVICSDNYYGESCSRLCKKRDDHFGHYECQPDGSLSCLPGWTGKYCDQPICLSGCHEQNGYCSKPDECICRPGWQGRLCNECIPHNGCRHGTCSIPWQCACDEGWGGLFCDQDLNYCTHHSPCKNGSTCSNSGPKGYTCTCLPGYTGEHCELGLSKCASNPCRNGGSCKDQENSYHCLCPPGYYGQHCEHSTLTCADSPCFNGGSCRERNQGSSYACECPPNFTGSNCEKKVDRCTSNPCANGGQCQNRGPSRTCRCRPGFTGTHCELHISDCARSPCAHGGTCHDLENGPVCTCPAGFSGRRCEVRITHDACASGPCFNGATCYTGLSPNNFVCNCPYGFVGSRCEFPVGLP
In words: FACS.

Where only a bound is given, the exact number is not on record here.

Sequence of human DLL4 ECD (human) (chain, as listed by the source): as the sequence (chain, as listed by the source) above

B1: h1A11.A12 (antibody, V domains shown)
VH: EVQLVESGGGLVQPGGSLRLSCAASGFTFSNFPMAWVRQAPGKGLEWVATISSSDGTTYYRDSVKGRFTISRDNAKNSLYLQMNSLRAEDTAVYYCARGYYNSPFAYWGQGTLVTVSS
VL: DIQMTQSPSSLSASVGDRVTITCRASQDIYYNLAWYQQKPGKSPKLLIFDTSSLADGVPSRFSGSGSGTDFTLTISSLQPEDFATYFCQQYDWYPPTFGQGTKLEIK
B1: in test [1], the Kd amounted to 16 nM.

B2: h1A11.A7 (antibody, V domains shown)
VH: EVQLVESGGGLVQPGGSLRLSCAASGFTFSNFPMAWVRQAPGKGLEWVATISSSDGTTYYRDSVKGRFTISRDNAKNSLYLQMNSLRAEDTAVYYCARGYYNSPFAYWGQGTLVTVSS
VL: DIQMTQSPSSLSASVGDRVTITCRASQDIYINLAWYQQKPGKAPKLLIFDTSDLADGVPSRFSGSGSGTDFTLTISSLQPEDFATYYCQQYDYYPPTFGQGTKLEIK
With B2, the affinity in test [1], expressed as Kd, was 13 nM.

B3: 14A11 rat mAb (antibody, V domains shown)
VH: EVQLQQSGPELAKPGSSVKISCKASGYTFTNSYISWIKQTTGQGLEYVGYINTGSGGADYNEKFKGKATLTVDKSSRTAFMQLSSLTPGDSAVYYCAKSILLGSTCYFDYWGQGVLVTVSS
VL: NTVLTQSPALAVSLGQRVTISCKASRSVSSPMYSYIYWYQQKPGQQPKLLIYRASTLASGVPARFSGSGSGTDFTLNIDPVEADDIATYFCQQSWSDPFTFGSGTKLEIKR
Molecule B3 registered an EC50 in test [2] greater than 50.9 nM.

B4: h38H12.9 (antibody, V domains shown)
VH: EVQLVESGGGVVQPGRSLRLSCAASGFTFSNYGMYWVRQAPGKGLEWVAFISHGGGITYYRDSVKGRFTISRDNSKNTLYLQMNSLRAEDTAVYYCAALNWELGIDYWGQGTMVTVSS
VL: DIQMTQSPSSLSASVGDRVTITCRASEDIYSNLAWYQQKPGKAPKLLIYAANRLQDGVPSRFSGSGSGTDFTLTISSLQPEDFATYYCLQGSKFPLTFGQGTKLEIKR
B4 had an IC50 in test [3] of 4.16 nM.

B5: h38H12.15 (antibody, V domains shown)
VH: EVQLVESGGGLVQPGGSLRLSCAASGFTFSNYGMYWIRQAPGKGLEWVAFISHGGGITYYRDSVKGRFTISRDNSKSTLYLQMNSLRAEDTAVYHCAALNWELGIDYWGQGTMVTVSS
VL: DIQMTQSPSSLSASVGDRVTITCRASEDIYSNLAWYQQKPGKAPKLLIYAANRLQDGVPSRFSGSGSGTDYTLTISSLQPEDFATYYCLQGSKFPLTFGQGTKLEIKR
B5: the IC50 in test [3] came out at 5.71 nM.

B6: h38H12.7 (antibody, V domains shown)
VH: EVQLVESGGGVVQPGRSLRLSCAASGFTFSNYGMYWIRQAPGKGLEWVAFISHGGGITYYRDSVKGRFTISRDNSKSTLYLQMNSLRAEDTAVYHCAALNWELGIDYWGQGTMVTVSS
VL: DIQMTQSPSSLSASVGDRVTITCRASEDIYSNLAWYQQKPGKAPKLLIYAANRLQDGVPSRFSGSGSGTDYTLTISSLQPEDFATYYCLQGSKFPLTFGQGTKLEIKR
For B6, the IC50 in test [3] worked out at 12.5 nM.

B7: h38H12.5 (antibody, V domains shown)
VH: EVQLVESGGGVVQPGRSLRLSCAASGFTFSNYGMYWIRQAPGKGLEWVAFISHGGGITYYRDSVKGRFTISRDNSKSTLYLQMNSLRAEDTAVYHCAALNWELGIDYWGQGTMVTVSS
VL: DIQMTQSPSSLSASVGDRVTITCRASEDIYSNLAWYQQKPGKAPKLLIYAANRLQDGVPSRFSGSGSGTDFTLTISSLQPEDFATYYCLQGSKFPLTFGQGTKLEIKR
Molecule B7 returned an IC50 in test [3] of 14.8 nM.

B8: h38H12.14 (antibody, V domains shown)
VH: EVQLVESGGGLVQPGGSLRLSCAASGFTFSNYGMYWIRQAPGKGLEWVAFISHGGGITYYRDSVKGRFTISRDNSKSTLYLQMNSLRAEDTAVYHCAALNWELGIDYWGQGTMVTVSS
VL: DIQMTQSPSSLSASVGDRVTITCRASEDIYSNLAWYQKKPGKSPKLLIYAANRLQDGVPSRFSGSGSGTDYTLTISSLQPEDFATYFCLQGSKFPLTFGQGTKLEIKR
In test [3], B8 came in with an IC50 of 5.84 nM.

B9: h38H12.11 (antibody, V domains shown)
VH: EVQLVESGGGVVQPGRSLRLSCAASGFTFSNYGMYWVRQAPGKGLEWVAFISHGGGITYYRDSVKGRFTISRDNSKNTLYLQMNSLRAEDTAVYYCAALNWELGIDYWGQGTMVTVSS
VL: DIQMTQSPSSLSASVGDRVTITCRASEDIYSNLAWYQQKPGKAPKLLIYAANRLQDGVPSRFSGSGSGTDYTLTISSLQPEDFATYYCLQGSKFPLTFGQGTKLEIKR
In turn, B9 yielded an IC50 in test [3] of 3.8 nM.

B10: h38H12.10 (antibody, V domains shown)
VH: EVQLVESGGGVVQPGRSLRLSCAASGFTFSNYGMYWVRQAPGKGLEWVAFISHGGGITYYRDSVKGRFTISRDNSKNTLYLQMNSLRAEDTAVYYCAALNWELGIDYWGQGTMVTVSS
VL: DIQMTQSPSSLSASVGDRVTITCRASEDIYSNLAWYQKKPGKSPKLLIYAANRLQDGVPSRFSGSGSGTDYTLTISSLQPEDFATYFCLQGSKFPLTFGQGTKLEIKR
Regarding B10, in test [3], the IC50 amounted to 3.9 nM.

B11: h38H12.13 (antibody, V domains shown)
VH: EVQLVESGGGLVQPGGSLRLSCAASGFTFSNYGMYWIRQAPGKGLEWVAFISHGGGITYYRDSVKGRFTISRDNSKSTLYLQMNSLRAEDTAVYHCAALNWELGIDYWGQGTMVTVSS
VL: DIQMTQSPSSLSASVGDRVTITCRASEDIYSNLAWYQQKPGKAPKLLIYAANRLQDGVPSRFSGSGSGTDFTLTISSLQPEDFATYYCLQGSKFPLTFGQGTKLEIKR
As to B11, the IC50 in test [3] was determined as 5.29 nM.

B12: h38H12.8 (antibody, V domains shown)
VH: EVQLVESGGGVVQPGRSLRLSCAASGFTFSNYGMYWIRQAPGKGLEWVAFISHGGGITYYRDSVKGRFTISRDNSKSTLYLQMNSLRAEDTAVYHCAALNWELGIDYWGQGTMVTVSS
VL: EIVMTQSPATLSVSPGERATLSCRASEDIYSNLAWYQKKPGQSPRLLIYAANRLQDGVPARFSGSGSGTEYTLTISSLQSEDFAVYFCLQGSKFPLTFGQGTKLEIKR
In the case of B12, the IC50 in test [3] came to 8.31 nM.

B13: h38H12.12 (antibody, V domains shown)
VH: EVQLVESGGGVVQPGRSLRLSCAASGFTFSNYGMYWVRQAPGKGLEWVAFISHGGGITYYRDSVKGRFTISRDNSKNTLYLQMNSLRAEDTAVYYCAALNWELGIDYWGQGTMVTVSS
VL: EIVMTQSPATLSVSPGERATLSCRASEDIYSNLAWYQKKPGQSPRLLIYAANRLQDGVPARFSGSGSGTEYTLTISSLQSEDFAVYFCLQGSKFPLTFGQGTKLEIKR
On to B13, for which the IC50 in test [3] worked out at 3.23 nM.

B14: h38H12.6 (antibody, V domains shown)
VH: EVQLVESGGGVVQPGRSLRLSCAASGFTFSNYGMYWIRQAPGKGLEWVAFISHGGGITYYRDSVKGRFTISRDNSKSTLYLQMNSLRAEDTAVYHCAALNWELGIDYWGQGTMVTVSS
VL: DIQMTQSPSSLSASVGDRVTITCRASEDIYSNLAWYQKKPGKSPKLLIYAANRLQDGVPSRFSGSGSGTDYTLTISSLQPEDFATYFCLQGSKFPLTFGQGTKLEIKR
The molecule B14 came in with an IC50 in test [3] of 27 nM. This IC50 is about 8.4-fold higher than that of the molecule before.

B15: h38H12.16 (antibody, V domains shown)
VH: EVQLVESGGGLVQPGGSLRLSCAASGFTFSNYGMYWIRQAPGKGLEWVAFISHGGGITYYRDSVKGRFTISRDNSKSTLYLQMNSLRAEDTAVYHCAALNWELGIDYWGQGTMVTVSS
VL: EIVMTQSPATLSVSPGERATLSCRASEDIYSNLAWYQKKPGQSPRLLIYAANRLQDGVPARFSGSGSGTEYTLTISSLQSEDFAVYFCLQGSKFPLTFGQGTKLEIKR
B15 came in with an IC50 in test [3] of 3.77 nM.

B16: 14G1 rat mAb (antibody, V domains shown)
VH: EVQLQQSGAELAKPGSSVKISCKASGYTFTNYDISWIKQTNGQGLEYLGYINTGSGGIYSNEKFKGKATLTVDKSSNTAFMQLSSLTPEDTAVYYCVREGNNFDHWGQGVKVTVSS
VL: DTVMTQSPASMSTSVGERVTVNCKASQSVGTIVAWFQQKPGQSPKRLIYLATYRHTGVPDRFIGSGFGRDFTLTISNVEAEDLAVYYCLQYGSRPFTFGAGTKLEIKR
B16 gave an EC50 in test [4] greater than 50.9 nM.
